Two sequences from publication PMC2933242 can be followed below.

This series deals with T1, ERRα (estrogen-related receptor alpha) (UniProt P11474).
T1 sequence: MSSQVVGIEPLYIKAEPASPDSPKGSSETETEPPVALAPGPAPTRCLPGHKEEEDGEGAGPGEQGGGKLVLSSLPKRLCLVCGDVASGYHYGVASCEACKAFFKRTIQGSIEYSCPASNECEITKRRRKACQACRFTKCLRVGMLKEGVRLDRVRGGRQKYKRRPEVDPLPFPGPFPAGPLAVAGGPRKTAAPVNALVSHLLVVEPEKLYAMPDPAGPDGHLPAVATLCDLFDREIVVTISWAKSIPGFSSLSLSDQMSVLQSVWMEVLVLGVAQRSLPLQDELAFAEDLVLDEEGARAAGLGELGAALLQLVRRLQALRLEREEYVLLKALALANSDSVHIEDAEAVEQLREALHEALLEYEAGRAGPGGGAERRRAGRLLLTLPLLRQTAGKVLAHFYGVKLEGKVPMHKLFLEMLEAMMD
As to the kind of experiment: competition. To be noted: 10-, 50-, EMSA with 15,000 cpm probe per reaction, buffer, salt, pH and temperature not given (as in ref 28). For orientation: In EMSA bound probe runs differently from free probe, usually more slowly.

Turning to “GATCTAGCTCCTGCAGGTTCTCAAGGTTGTAGCCCGCACCCTGCTGATC (double strand) [PPARA -54,642 G probe (with -54,645 C)]”, the binding signal (fold IC50 (reference)) (unlabeled G vs 32P G probe, 100-fold excess) worked out at 1.
On to “GATCTAGCTCCTGCAGGTTCTCAAGGTTGTAGTCCACACCCTGCTGATC (double strand) [PPARA -54,642 A probe (with -54,645 T)]”, for which the binding signal (fold IC50 (A competitor / G competitor)) (vs 32P G probe, 100-fold excess of competitor) is 2.3.
